Like-named read-outs stand apart in the source and are kept apart here. Blank lines part the entries; values can stand above or below the molecule they belong to.
Key:
[1] = target: GST-tagged YY1(Δ231-290) (UniProt P25490); test: SEC
[2] = tested on: YY1 (SILAC extract); test: pull-down, SILAC MS
[3] = target: T1, YY1 (Homo sapiens, UniProt P25490 1-414); test: fluorescence anisotropy
[4] = target: T1, YY1; test: fluorescence anisotropy; remark: listed apart in the source
[5] = target: T2, YY1 del231-290 (Homo sapiens, UniProt P25490 1-414, del231-290); test: fluorescence anisotropy
[6] = target: T2, YY1 del231-290; test: fluorescence anisotropy; remark: listed apart in the source
[7] = target: T1, YY1; test: fluorescence anisotropy; remark: listed apart in the source
[8] = target: T1, YY1; test: fluorescence anisotropy; remark: listed apart in the source
[9] = target: GST-YY1 (Homo sapiens, UniProt P25490 1-414); test: fluorescence anisotropy

stoichiometry N [1]: 2
Molecule: GST-tagged YY1(Δ231-290) (from UniProt P25490 1-414)

Molecule: cMYC G4 biotin probe
binding signal (SILAC ratio G4/M4) [2]: 1.77

Molecule: hTEL G4 biotin probe
binding signal (SILAC ratio G4/M4) [2]: 2.02

Molecule: cKIT G4 biotin probe
binding signal (SILAC ratio G4/M4) [2]: 1.92

Molecule: AAAGGGTTAGTGTTAGTGTTAGGGAA (ssDNA) [hTEL M4]
binding signal [3]: > 10 fold lower affinity than hTEL G4

Molecule: AGGGAGGGCGCTGGGAGGAGGG (structured_DNA) [cKIT G4]
Kd [4]: 0.0267 ± 0.0022 µM

Molecule: TGAGGGTGGGGAGGGTGGGGA (structured_DNA) [cMYC G4]
binding result [5]: binds | Kd [4]: 0.0263 ± 0.0021 µM

Molecule: TGAGGGTGAGGAGTGTGGGGA (ssDNA) [cMYC M4]
binding signal [6]: ~10 fold lower affinity than cMYC G4 | binding signal [7]: > 10 fold lower affinity than cMYC G4

Molecule: AGGGAGGGCTCTGTGAGGAGGG (ssDNA) [cKIT M4]
binding signal [8]: > 10 fold lower affinity than cKIT G4

Molecule: AAAGGGTTAGGGTTAGGGTTAGGGAA (structured_DNA) [hTEL G4]
Kd [4]: 0.082 ± 0.0053 µM

B1: YY1 consensus motif duplex (dsDNA)
DNA 1: TCCACGGCAGCCGCCATCTTGGCT
DNA 2: AGCCAAGATGGCGGCTGCCGTGGA
Kd [9]: 0.0116 ± 0.0008 µM

— publication PMC7854983
